Starred links: 1 amine or outer side, 2 acyl side, 3 side chain; linkers in the order of their positions; H or OH if unused. Non-standard residues stand in square brackets, D forms with d. Groups on a side chain read outwards from the residue. No end group written: not given here. *: point of attachment. C18 diacid = O=C(O)CCCCCCCCCCCCCCCCC(=O)*; γGlu = O=C(O)[C@H](CCC(=O)[*:2])N[*:1]; Ac4c = NC1(C(=O)O)CCC1; AEEA = NCCOCCOCC(=O)O; Aib = CC(C)(N)C(=O)O
B1: N^ε28-[(4S)-4-carboxy-4-[[(4S)-4-carboxy-4-[[2-[2-[2-[[2-[2-[2-[[(4S)-4-carboxy-4-[[(4S)-4-carboxy-4-(17-carboxyheptadecanoylamino)butanoyl]amino]butanoyl]amino … (peptide)
peptide: H[Ac4c]QGTFTSDVSKYLESRRAREFVQWLIK([γGlu-γGlu-AEEA-AEEA-γGlu-γGlu-C18 diacid])T-NH2
modifications: N-terminus assumed
SMILES: CC[C@H](C)[C@H](NC(=O)[C@H](CC(C)C)NC(=O)[C@H](Cc1c[nH]c2ccccc12)NC(=O)[C@H](CCC(N)=O)NC(=O)[C@@H](NC(=O)[C@H](Cc1ccccc1)NC(=O)[C@H](CCC(=O)O)NC(=O)[C@H](CCCNC(=N)N)NC(=O)[C@H](C)NC(=O)[C@H](CCCNC(=N)N)NC(=O)[C@H](CCCNC(=N)N)NC(=O)[C@H](CO)NC(=O)[C@H](CCC(=O)O)NC(=O)[C@H](CC(C)C)NC(=O)[C@H](Cc1ccc(O)cc1)NC(=O)[C@H](CCCCN)NC(=O)[C@H](CO)NC(=O)[C@@H](NC(=O)[C@H](CC(=O)O)NC(=O)[C@H](CO)NC(=O)[C@@H](NC(=O)[C@H](Cc1ccccc1)NC(=O)[C@@H](NC(=O)CNC(=O)[C@H](CCC(N)=O)NC(=O)C1(NC(=O)[C@@H](N)Cc2c[nH]cn2)CCC1)[C@@H](C)O)[C@@H](C)O)C(C)C)C(C)C)C(=O)N[C@@H](CCCCNC(=O)CC[C@H](NC(=O)CC[C@H](NC(=O)COCCOCCNC(=O)COCCOCCNC(=O)CC[C@H](NC(=O)CC[C@H](NC(=O)CCCCCCCCCCCCCCCCC(=O)O)C(=O)O)C(=O)O)C(=O)O)C(=O)O)C(=O)N[C@H](C(N)=O)[C@@H](C)O
notes: also called Chem. 19; Chem 19
B2: N^ε29-[(4S)-4-carboxy-4-[[(4S)-4-carboxy-4-[[2-[2-[2-[[2-[2-[2-[[(4S)-4-carboxy-4-(17-carboxyheptadecanoylamino)butanoyl]amino]ethoxy]ethoxy]acetyl]amino]ethoxy … (peptide)
peptide: H[Aib]QGTFTSDLSKYLDLRRAREFVQWLINK([γGlu-γGlu-AEEA-AEEA-γGlu-C18 diacid])-NH2
modifications: N-terminus assumed
SMILES: CC[C@H](C)[C@H](NC(=O)[C@H](CC(C)C)NC(=O)[C@H](Cc1c[nH]c2ccccc12)NC(=O)[C@H](CCC(N)=O)NC(=O)[C@@H](NC(=O)[C@H](Cc1ccccc1)NC(=O)[C@H](CCC(=O)O)NC(=O)[C@H](CCCNC(=N)N)NC(=O)[C@H](C)NC(=O)[C@H](CCCNC(=N)N)NC(=O)[C@H](CCCNC(=N)N)NC(=O)[C@H](CC(C)C)NC(=O)[C@H](CC(=O)O)NC(=O)[C@H](CC(C)C)NC(=O)[C@H](Cc1ccc(O)cc1)NC(=O)[C@H](CCCCN)NC(=O)[C@H](CO)NC(=O)[C@H](CC(C)C)NC(=O)[C@H](CC(=O)O)NC(=O)[C@H](CO)NC(=O)[C@@H](NC(=O)[C@H](Cc1ccccc1)NC(=O)[C@@H](NC(=O)CNC(=O)[C@H](CCC(N)=O)NC(=O)C(C)(C)NC(=O)[C@@H](N)Cc1c[nH]cn1)[C@@H](C)O)[C@@H](C)O)C(C)C)C(=O)N[C@@H](CC(N)=O)C(=O)N[C@@H](CCCCNC(=O)CC[C@H](NC(=O)CC[C@H](NC(=O)COCCOCCNC(=O)COCCOCCNC(=O)CC[C@H](NC(=O)CCCCCCCCCCCCCCCCC(=O)O)C(=O)O)C(=O)O)C(=O)O)C(N)=O
notes: also called Chem. 22; Chem 22
B3: N^ε29-[(4S)-4-carboxy-4-[[(4S)-4-carboxy-4-[[2-[2-[2-[[2-[2-[2-[[(4S)-4-carboxy-4-(17-carboxyheptadecanoylamino)butanoyl]amino]ethoxy]ethoxy]acetyl]amino]ethoxy … (peptide)
chain: H[Aib]QGTFTSDLSKYLDLRRARDFVQWLINK([γGlu-γGlu-AEEA-AEEA-γGlu-C18 diacid])-NH2
modifications: N-terminus assumed
SMILES: CC[C@H](C)[C@H](NC(=O)[C@H](CC(C)C)NC(=O)[C@H](Cc1c[nH]c2ccccc12)NC(=O)[C@H](CCC(N)=O)NC(=O)[C@@H](NC(=O)[C@H](Cc1ccccc1)NC(=O)[C@H](CC(=O)O)NC(=O)[C@H](CCCNC(=N)N)NC(=O)[C@H](C)NC(=O)[C@H](CCCNC(=N)N)NC(=O)[C@H](CCCNC(=N)N)NC(=O)[C@H](CC(C)C)NC(=O)[C@H](CC(=O)O)NC(=O)[C@H](CC(C)C)NC(=O)[C@H](Cc1ccc(O)cc1)NC(=O)[C@H](CCCCN)NC(=O)[C@H](CO)NC(=O)[C@H](CC(C)C)NC(=O)[C@H](CC(=O)O)NC(=O)[C@H](CO)NC(=O)[C@@H](NC(=O)[C@H](Cc1ccccc1)NC(=O)[C@@H](NC(=O)CNC(=O)[C@H](CCC(N)=O)NC(=O)C(C)(C)NC(=O)[C@@H](N)Cc1c[nH]cn1)[C@@H](C)O)[C@@H](C)O)C(C)C)C(=O)N[C@@H](CC(N)=O)C(=O)N[C@@H](CCCCNC(=O)CC[C@H](NC(=O)CC[C@H](NC(=O)COCCOCCNC(=O)COCCOCCNC(=O)CC[C@H](NC(=O)CCCCCCCCCCCCCCCCC(=O)O)C(=O)O)C(=O)O)C(=O)O)C(N)=O
B4: N^ε29-[(4S)-4-carboxy-4-[[(4S)-4-carboxy-4-[[2-[2-[2-[[2-[2-[2-[[(4S)-4-carboxy-4-(17-carboxyheptadecanoylamino)butanoyl]amino]ethoxy]ethoxy]acetyl]amino]ethoxy … (peptide)
chain: H[Aib]QGTFTSDLSKYLDLRRARDFVQWLISK([γGlu-γGlu-AEEA-AEEA-γGlu-C18 diacid])-NH2
modifications: N-terminus assumed
SMILES: CC[C@H](C)[C@H](NC(=O)[C@H](CC(C)C)NC(=O)[C@H](Cc1c[nH]c2ccccc12)NC(=O)[C@H](CCC(N)=O)NC(=O)[C@@H](NC(=O)[C@H](Cc1ccccc1)NC(=O)[C@H](CC(=O)O)NC(=O)[C@H](CCCNC(=N)N)NC(=O)[C@H](C)NC(=O)[C@H](CCCNC(=N)N)NC(=O)[C@H](CCCNC(=N)N)NC(=O)[C@H](CC(C)C)NC(=O)[C@H](CC(=O)O)NC(=O)[C@H](CC(C)C)NC(=O)[C@H](Cc1ccc(O)cc1)NC(=O)[C@H](CCCCN)NC(=O)[C@H](CO)NC(=O)[C@H](CC(C)C)NC(=O)[C@H](CC(=O)O)NC(=O)[C@H](CO)NC(=O)[C@@H](NC(=O)[C@H](Cc1ccccc1)NC(=O)[C@@H](NC(=O)CNC(=O)[C@H](CCC(N)=O)NC(=O)C(C)(C)NC(=O)[C@@H](N)Cc1c[nH]cn1)[C@@H](C)O)[C@@H](C)O)C(C)C)C(=O)N[C@@H](CO)C(=O)N[C@@H](CCCCNC(=O)CC[C@H](NC(=O)CC[C@H](NC(=O)COCCOCCNC(=O)COCCOCCNC(=O)CC[C@H](NC(=O)CCCCCCCCCCCCCCCCC(=O)O)C(=O)O)C(=O)O)C(=O)O)C(N)=O
B5: N^ε29-[(4S)-4-carboxy-4-[[(4S)-4-carboxy-4-[[2-[2-[2-[[2-[2-[2-[[(4S)-4-carboxy-4-(17-carboxyheptadecanoylamino)butanoyl]amino]ethoxy]ethoxy]acetyl]amino]ethoxy … (peptide)
chain: H[Aib]QGTFTSDLSKYLDLRRAREFVQWLISK([γGlu-γGlu-AEEA-AEEA-γGlu-C18 diacid])-NH2
modifications: N-terminus assumed
SMILES: CC[C@H](C)[C@H](NC(=O)[C@H](CC(C)C)NC(=O)[C@H](Cc1c[nH]c2ccccc12)NC(=O)[C@H](CCC(N)=O)NC(=O)[C@@H](NC(=O)[C@H](Cc1ccccc1)NC(=O)[C@H](CCC(=O)O)NC(=O)[C@H](CCCNC(=N)N)NC(=O)[C@H](C)NC(=O)[C@H](CCCNC(=N)N)NC(=O)[C@H](CCCNC(=N)N)NC(=O)[C@H](CC(C)C)NC(=O)[C@H](CC(=O)O)NC(=O)[C@H](CC(C)C)NC(=O)[C@H](Cc1ccc(O)cc1)NC(=O)[C@H](CCCCN)NC(=O)[C@H](CO)NC(=O)[C@H](CC(C)C)NC(=O)[C@H](CC(=O)O)NC(=O)[C@H](CO)NC(=O)[C@@H](NC(=O)[C@H](Cc1ccccc1)NC(=O)[C@@H](NC(=O)CNC(=O)[C@H](CCC(N)=O)NC(=O)C(C)(C)NC(=O)[C@@H](N)Cc1c[nH]cn1)[C@@H](C)O)[C@@H](C)O)C(C)C)C(=O)N[C@@H](CO)C(=O)N[C@@H](CCCCNC(=O)CC[C@H](NC(=O)CC[C@H](NC(=O)COCCOCCNC(=O)COCCOCCNC(=O)CC[C@H](NC(=O)CCCCCCCCCCCCCCCCC(=O)O)C(=O)O)C(=O)O)C(=O)O)C(N)=O
B6: N^ε29-[(4S)-4-carboxy-4-[[(4S)-4-carboxy-4-[[2-[2-[2-[[2-[2-[2-[[(4S)-4-carboxy-4-(17-carboxyheptadecanoylamino)butanoyl]amino]ethoxy]ethoxy]acetyl]amino]ethoxy … (peptide)
chain: H[Aib]QGTFTSDLSKYLDLRRARDFVAWLISK([γGlu-γGlu-AEEA-AEEA-γGlu-C18 diacid])-NH2
modifications: N-terminus assumed
SMILES: CC[C@H](C)[C@H](NC(=O)[C@H](CC(C)C)NC(=O)[C@H](Cc1c[nH]c2ccccc12)NC(=O)[C@H](C)NC(=O)[C@@H](NC(=O)[C@H](Cc1ccccc1)NC(=O)[C@H](CC(=O)O)NC(=O)[C@H](CCCNC(=N)N)NC(=O)[C@H](C)NC(=O)[C@H](CCCNC(=N)N)NC(=O)[C@H](CCCNC(=N)N)NC(=O)[C@H](CC(C)C)NC(=O)[C@H](CC(=O)O)NC(=O)[C@H](CC(C)C)NC(=O)[C@H](Cc1ccc(O)cc1)NC(=O)[C@H](CCCCN)NC(=O)[C@H](CO)NC(=O)[C@H](CC(C)C)NC(=O)[C@H](CC(=O)O)NC(=O)[C@H](CO)NC(=O)[C@@H](NC(=O)[C@H](Cc1ccccc1)NC(=O)[C@@H](NC(=O)CNC(=O)[C@H](CCC(N)=O)NC(=O)C(C)(C)NC(=O)[C@@H](N)Cc1c[nH]cn1)[C@@H](C)O)[C@@H](C)O)C(C)C)C(=O)N[C@@H](CO)C(=O)N[C@@H](CCCCNC(=O)CC[C@H](NC(=O)CC[C@H](NC(=O)COCCOCCNC(=O)COCCOCCNC(=O)CC[C@H](NC(=O)CCCCCCCCCCCCCCCCC(=O)O)C(=O)O)C(=O)O)C(=O)O)C(N)=O
B7: N^ε29-[(4S)-4-carboxy-4-[[(4S)-4-carboxy-4-[[2-[2-[2-[[2-[2-[2-[[(4S)-4-carboxy-4-(17-carboxyheptadecanoylamino)butanoyl]amino]ethoxy]ethoxy]acetyl]amino]ethoxy … (peptide)
chain: H[Aib]QGTFTSDYSKYLESRRAQDFVAWLISK([γGlu-γGlu-AEEA-AEEA-γGlu-C18 diacid])-NH2
modifications: N-terminus assumed
SMILES: CC[C@H](C)[C@H](NC(=O)[C@H](CC(C)C)NC(=O)[C@H](Cc1c[nH]c2ccccc12)NC(=O)[C@H](C)NC(=O)[C@@H](NC(=O)[C@H](Cc1ccccc1)NC(=O)[C@H](CC(=O)O)NC(=O)[C@H](CCC(N)=O)NC(=O)[C@H](C)NC(=O)[C@H](CCCNC(=N)N)NC(=O)[C@H](CCCNC(=N)N)NC(=O)[C@H](CO)NC(=O)[C@H](CCC(=O)O)NC(=O)[C@H](CC(C)C)NC(=O)[C@H](Cc1ccc(O)cc1)NC(=O)[C@H](CCCCN)NC(=O)[C@H](CO)NC(=O)[C@H](Cc1ccc(O)cc1)NC(=O)[C@H](CC(=O)O)NC(=O)[C@H](CO)NC(=O)[C@@H](NC(=O)[C@H](Cc1ccccc1)NC(=O)[C@@H](NC(=O)CNC(=O)[C@H](CCC(N)=O)NC(=O)C(C)(C)NC(=O)[C@@H](N)Cc1c[nH]cn1)[C@@H](C)O)[C@@H](C)O)C(C)C)C(=O)N[C@@H](CO)C(=O)N[C@@H](CCCCNC(=O)CC[C@H](NC(=O)CC[C@H](NC(=O)COCCOCCNC(=O)COCCOCCNC(=O)CC[C@H](NC(=O)CCCCCCCCCCCCCCCCC(=O)O)C(=O)O)C(=O)O)C(=O)O)C(N)=O

Key:
human glucagon receptor [1] = target: T1, human glucagon receptor (human, UniProt P47871 26-477); test: displacement of [125I]-glucagon from BHK membranes with human glucagon receptor, SPA, no serum albumin
T1 construct: whole, on cells; reporter assay used whole cells; also called hGCGR
T1 sequence (P47871 26-477): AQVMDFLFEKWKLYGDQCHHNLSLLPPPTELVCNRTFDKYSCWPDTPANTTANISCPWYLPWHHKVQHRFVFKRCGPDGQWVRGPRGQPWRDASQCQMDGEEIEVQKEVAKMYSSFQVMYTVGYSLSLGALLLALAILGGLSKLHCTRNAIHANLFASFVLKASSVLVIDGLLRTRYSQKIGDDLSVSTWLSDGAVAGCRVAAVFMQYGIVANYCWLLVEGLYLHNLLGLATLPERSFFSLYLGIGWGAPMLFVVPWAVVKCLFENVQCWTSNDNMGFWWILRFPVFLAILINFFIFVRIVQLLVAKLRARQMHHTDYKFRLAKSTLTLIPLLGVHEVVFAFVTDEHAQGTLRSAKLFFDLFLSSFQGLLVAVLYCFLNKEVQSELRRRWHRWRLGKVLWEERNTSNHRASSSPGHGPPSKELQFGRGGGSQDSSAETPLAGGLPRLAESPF

human glucagon receptor [2] = target: T1, human glucagon receptor; test: cell-based or functional assay
human GLP-1 receptor [3] = target: T2, human GLP-1 receptor (human, UniProt P43220 24-463); test: cell-based or functional assay
human GLP-1 receptor [4] = target: T2, human GLP-1 receptor; test: displacement of [125I]-GLP-1-(7-36)NH2 from BHK membranes with human GLP-1R, SPA, no serum albumin

Binder	IC50 (human glucagon receptor [1]) [nM]	GlucagonR EC50 (pM), [Assay (I)(b)], CRE luciferase reporter, BHK cells (human glucagon receptor [2]) [pM]	GLP-1R EC50 (pM) [Assay (I)(a)], CRE luciferase reporter, BHK cells (human GLP-1 receptor [3]) [pM]	IC50 (human GLP-1 receptor [4]) [nM]
H[Ac4c]QGTFTSDLSKYLESRRAREFVQWLIK([Gly-Ser-Glu-Gly-Ser-γGlu-γGlu-C18 diacid])T-NH2 (also called Chem. 16; Chem 16)	2.7	13	5	
B1	2.5	37	6	
B2	67.3			0.3
B3	83.2			0.3
B4	64.7			1
B5	71.2			0.9
B6	144			1.1
B7	60			2.2

From patent US20170101454A1 (Novo Nordisk, published 2017)
